Reference: publication PMC3785480, “BB0347, from the Lyme Disease Spirochete Borrelia burgdorferi, Is Surface Exposed and Interacts with the CS1 Heparin-Binding Domain of Human Fibronectin” (PLoS ONE, 2013)

Target: T1, recombinant BB0347 (Borrelia burgdorferi)
T1 construct: also called rBB0347; source: E. coli Rosetta(DE3)pLysS, pET200, purified (MagneHis nickel particles, dialysed into PBS)
Test: ELISA; FnHBD assay: coated plate treated with varying concentrations of rBB0347, 37°C, 1.5 h; detected with rabbit polyclonal anti-BB0347; KD = concentration of added protein at half-maximal binding, assuming saturation
Conditions: both partners purified

B1: peptide fragment containing the CS1 heparin-binding domain (HBD) of human Fn (domain or fragment)
chain: AIPAPTDLKFTQVTPTSLSAQWTPPNVQLTGYRVRVTPKEKTGPMKEINLAPDSSSVVVSGLMVATKYEVSVYALKDTLTSRPAQGVVTTLENVSPPRRARVTDATETTITISWRTKTETITGFQVDAVPANGQTPIQRTIKPDVRSYTITGLQPGTDYKIYLYTLNDNARSSPVVIDASTAIDAPSNLRFLATTPNSLLVSWQPPRARITGYIIKYEKPGSPPREVVPRPRPGVTEATITGLEPGTEYTIYVIALKNNQKSEPLIGRKKT
- Kd: 0.18 ± 0.014 µM
